The supplement of paper PMC9233669
Variants at the floor of the assay were thinned out.

How the values were obtained:
[1] = test system: biotinyl-Phe-oxazolone; assay: self-aminoacylation, catalytic enhancement (BFO) (fold over background); higher = more active; k-Seq, kA / k0A0; sequences stand for … in GGGAAUGGAUCCACAUCUACGAAUUC…UUCACUGCAGACUUGACGAAGCUG
In short: (§1)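 Mutagenized RNA pools (0.43 μM; 21-nt variable region) were treated with 2–1250 μM of each biotinyl-aminoacyl-oxazolone. Conditions were 50 μL HEPES/NaCl/KCl/MgCl2/CaCl2 buffer, 5% acetonitrile, pH 6.9–7.0, room temperature, 90 minutes. Catalytic enhancement, the median kA relative to the uncatalyzed rate, was derived from streptavidin capture, qPCR and Illumina sequencing.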

[2] = test system: biotinyl-Met-oxazolone; assay: self-aminoacylation, catalytic enhancement (BMO) (fold over background); higher = more active; k-Seq, kA / k0A0; sequences stand for … in GGGAAUGGAUCCACAUCUACGAAUUC…UUCACUGCAGACUUGACGAAGCUG
In short: as §1

[3] = test system: biotinyl-Val-oxazolone; assay: self-aminoacylation, catalytic enhancement (BVO) (fold over background); higher = more active; k-Seq, kA / k0A0; sequences stand for … in GGGAAUGGAUCCACAUCUACGAAUUC…UUCACUGCAGACUUGACGAAGCUG
In short: as §1

[4] = test system: biotinyl-Ile-oxazolone; assay: self-aminoacylation, catalytic enhancement (BIO) (fold over background); higher = more active; k-Seq, kA / k0A0; sequences stand for … in GGGAAUGGAUCCACAUCUACGAAUUC…UUCACUGCAGACUUGACGAAGCUG
In short: as §1

[5] = test system: biotinyl-Leu-oxazolone; assay: self-aminoacylation, catalytic enhancement (BLO) (fold over background); higher = more active; k-Seq, kA / k0A0; sequences stand for … in GGGAAUGGAUCCACAUCUACGAAUUC…UUCACUGCAGACUUGACGAAGCUG
In short: as §1

[6] = test system: biotinyl-Trp-oxazolone; assay: self-aminoacylation, catalytic enhancement (BWO) (fold over background); higher = more active; k-Seq, kA / k0A0; sequences stand for … in GGGAAUGGAUCCACAUCUACGAAUUC…UUCACUGCAGACUUGACGAAGCUG
In short: as §1

Sequence	self-aminoacylation [1]	self-aminoacylation [2]	self-aminoacylation [3]	self-aminoacylation [4]	self-aminoacylation [5]	self-aminoacylation [6]
AAGUUUGCUAAUAGUCCUAAG [Fam3.1 aminoacylation ribozyme variant]	14.5	1.31	1.13	1.21	1.05	4.71
CCACACUUCAAGCUAUCCGUC [Fam1B.1 aminoacylation ribozyme variant]	0.797	0.761	1.27	1.04	0.736	1.13
AAGUUUGCUACUAGUCACAAG [Fam3.1 aminoacylation ribozyme variant]	2.36	0.969	1.02	0.962	0.772	1.29
CUACUUCAAACAAUCAGUCUA [Fam1A.1 aminoacylation ribozyme variant]	15.7	0.841	0.9	0.871	0.776	5.04
AAGUUUGUUAAUGGUCGCAAG [Fam3.1 aminoacylation ribozyme variant]	1.11	0.775	0.685	0.867	0.694	0.557
AUUAACCUGGUCAUCGAUUGA [Fam2.1 aminoacylation ribozyme variant]	0.76	0.959	0.818	0.963	0.88	1.15
AUGCACCUAGGUCAUCUGGUG [Fam2.2 aminoacylation ribozyme variant]	10.8	1.95	1.69	1.67	2.34	2.17
ACGUUCGCUAAUAGUCGCAAG [Fam3.1 aminoacylation ribozyme variant]	1.62	1.24	1.91	1.84	1.96	2.21
CCAGACUUCAAGCUAUCGGUC [Fam1B.1 aminoacylation ribozyme variant]	1.11	1.08	1.41	1.41	1.16	0.76
CCACACUUCAAGCAAUAGCUC [Fam1B.1 aminoacylation ribozyme variant]	0.859	0.708	0.816	0.691	0.941	0.427
AUUCACCUAGGUGAUCGCGUG [Fam2.2 aminoacylation ribozyme variant]	14.6	2.86	2.31	2.69	4.17	2.83
CUACUUCAAACGAUCGGUAUG [Fam1A.1 aminoacylation ribozyme variant]	0.588	0.585	0.675	0.544	0.591	0.727
AUACACCUAGGUCAUCGGGUC [Fam2.2 aminoacylation ribozyme variant]	7.44	1.31	1.29	1.08	1.57	1.18
AUGACCCUGGUCUUCGAGUGA [Fam2.1 aminoacylation ribozyme variant]	30.4	5.04	2.95	2.9	6.24	6.19
AAGUUUGCUACGAGUCGCAAG [Fam3.1 aminoacylation ribozyme variant]	1.05	0.922	0.876	0.656	0.671	0.978
AAUACCCUGGUCACCGAGUGA [Fam2.1 aminoacylation ribozyme variant]	39.1	6.98	3.33	4.13	6.58	6.81
AGUCACCUAGGUCAUCGGGGG [Fam2.2 aminoacylation ribozyme variant]	17.5	3.3	2.9	3.13	3.14	3.68
AGUACCCUGGUUAUCGAGUGA [Fam2.1 aminoacylation ribozyme variant]	37.4	7.87	4.26	3.63	9.55	9.24
AUUCACCUAUGUCAUCGGUUG [Fam2.2 aminoacylation ribozyme variant]	0.455	0.874	0.872	0.902	0.919	0.892
AUUGCCCUGAUCAUCGAGUGA [Fam2.1 aminoacylation ribozyme variant]	26.6	7.51	4.01	3.73	7.17	8.98
AUUCACCUUGGUCAUCGGGUG [Fam2.2 aminoacylation ribozyme variant]	55.7	7.9	4.97	4.71	9.96	7.43
AUUCUCCUAGGUCAUGGGGUG [Fam2.2 aminoacylation ribozyme variant]	78.8	9.56	5.64	5.81	12.5	8.92
UUACUUCAAACUAUCGGUCUG [Fam1A.1 aminoacylation ribozyme variant]	1.25	0.916	1.08	1.25	1.04	1.26
AUUACCCUGGUCAGCGAGGGA [Fam2.1 aminoacylation ribozyme variant]	0.743	1.34	1.19	1.54	0.891	2.06
AAUCAGCUAGGUCAUCGGGUG [Fam2.2 aminoacylation ribozyme variant]	37.5	4.97	6.64	5.2	5.01	7.54
CCACCCUUCAAGCAAUCGGUU [Fam1B.1 aminoacylation ribozyme variant]	2.79	1.42	1.67	1.47	1.91	4.11
